± gives the standard deviation of the averaged measurements.
Assay: total protein half-life in vivo (active degradation + dilution); higher = more stable protein
[1] = E. coli NCM3722 delta-clpP delta-lon delta-hslV, growth: N-lim chemostat, doubling time 6 h
[2] = E. coli NCM3722 delta-clpP, growth: N-lim chemostat, doubling time 6 h
[3] = E. coli NCM3722 delta-hslV, growth: N-lim chemostat, doubling time 6 h
[4] = E. coli NCM3722 delta-lon, growth: N-lim chemostat, doubling time 6 h
[5] = E. coli NCM3722 delta-smpB, growth: N-lim chemostat, doubling time 6 h
[6] = wild type E. coli NCM3722, growth: C-lim chemostat, doubling time 3 h
[7] = wild type E. coli NCM3722, growth: C-lim chemostat, doubling time 6 h
[8] = wild type E. coli NCM3722, growth: C-lim chemostat, doubling time 12 h
[9] = wild type E. coli NCM3722, growth: N-lim chemostat, doubling time 6 h
[10] = wild type E. coli NCM3722, growth: N-lim chemostat, doubling time 12 h
[11] = wild type E. coli NCM3722, growth: P-lim chemostat, doubling time 6 h
[12] = wild type E. coli NCM3722, growth: P-lim chemostat, doubling time 12 h

Sequence | total protein half-life in vivo [1] [h] | total protein half-life in vivo [2] [h] | total protein half-life in vivo [3] [h] | total protein half-life in vivo [4] [h] | total protein half-life in vivo [5] [h] | total protein half-life in vivo [6] [h] | total protein half-life in vivo [7] [h] | total protein half-life in vivo [8] [h] | total protein half-life in vivo [9] [h] | total protein half-life in vivo [10] [h] | total protein half-life in vivo [11] [h] | total protein half-life in vivo [12] [h]
MKHYSIQPANLEFNAEGTPVSRDFDDVYFSNDNGLEETRYVFLGGNQLEVRFPEHPHPLFVVAESGFGTGLNFLTLWQAFDQFREAHPQAQLQRLHFISFEKFPLTRADLALAHQHWPELAPWAEQLQAQWPMPLPGCHRLLLDEGRVTLDLWFGDINELTSQLDDSLNQKVDAWFLDGFAPAKNPDMWTQNLFNAMARLARPGGTLATFTSAGFVRRGLQDAGFTMQKRKGFGRKREMLCGVMEQTLPLPCSAPWFNRTGSSKREAAIIGGGIASALLSLALLRRGWQVTLYCADEAPALGASGNRQGALYPLLSKHDEALNRFFSNAFTFARRFYDQLPVKFDHDWCGVTQLGWDEKSQHKIAQMLSMDLPAELAVAVEANAVEQITGVATNCSGITYPQGGWLCPAELTRNVLELAQQQGLQIYYQYQLQNLSRKDDCWLLNFAGDQQATHSVVVLANGHQISRFSQTSTLPVYSVAGQVSHIPTTPELAELKQVLCYDGYLTPQNPANQHHCIGASYHRGSEDTAYSEDDQQQNRQRLIDCFPQAQWAKEVDVSDKEARCGVRCATRDHLPMVGNVPDYEATLVEYASLAEQKDEAVSAPVFDDLFMFAALGSRGLCSAPLCAEILAAQMSDEPIPMDASTLAALNPNRLWVRKLLKGKAVKAG | 4.59 ± 0.099 | 4.792 ± 0.021 | 4.36 ± 0.24 | 4.42 ± 0.19 | 3.84 ± 0.39 | 2.83 ± 0.03 | 5.48 ± 0.74 | 9.73 ± 0.51 | 4.41 ± 0.17 | 8.97 ± 0.84 | 4.57 ± 0.22 | 7.48 ± 1
MKIELTVNGLKIQAQYQNEEIENVHKPLLHMLAALQTVNPQRRTVVFLCAPPGTGKSTLTTFWEYLAQQDPELPAIQTLPMDGFHHYNSWLDAHQLRPFKGAPETFDVAKLTENLRQVVEGDCTWPQYDRQKHDPVEDALHVTAPLVIVEGNWLLLDDEKWLELASFCDFSIFIHAPAQILRERLISRKIAGGLTRQVAEAFYARTDGPNVERVLMNSRQANLIVEMTEEGRYHFTS | 5.96 | 1.31 | – | – | – | – | – | – | – | – | – | –
MKIISKMLVGALALAVTNVYAAELMTKAEFEKVESQYEKIGDISTSNEMSTADAKEDLIKKADEKGADVLVLTSGQTDNKIHGTANIYKKK | 5.25 ± 1.4 | 5.09 ± 0.88 | 5.83 ± 1 | 5.4 ± 0.39 | 4.12 ± 0.067 | 2.86 ± 0.34 | 4.78 ± 0.76 | 5.78 ± 0.63 | 5.28 ± 0.32 | 9.55 ± 3.1 | 4.64 ± 1.1 | 9.62 ± 0.2
MKIITCFKLVPEEQDIVVTPEYTLNFDNADAKISQFDLNAIEAASQLATDDDEIAALTVGGSLLQNSKVRKDVLSRGPHSLYLVQDAQLEHALPLDTAKALAAAIEKIGFDLLIFGEGSGDLYAQQVGLLVGEILQLPVINAVSAIQRQGNTLVIERTLEDDVEVIELSVPAVLCVTSDINVPRIPSMKAILGAGKKPVNQWQASDIDWSQSAPLAELVGIRVPPQTERKHIIIDNDSPEAIAELAEHLKKALN | – | – | – | 4.32 | – | 0.95 | – | – | – | – | – | –
MKIITCYKCVPDEQDIAVNNADGSLDFSKADAKISQYDLNAIEAACQLKQQAAEAQVTALSVGGKALTNAKGRKDVLSRGPDELIVVIDDQFEQALPQQTASALAAAAQKAGFDLILCGDGSSDLYAQQVGLLVGEILNIPAVNGVSKIISLTADTLTVERELEDETETLSIPLPAVVAVSTDINSPQIPSMKAILGAAKKPVQVWSAADIGFNAEAAWSEQQVAAPKQRERQRIVIEGDGEEQIAAFAENLRKVI | – | – | – | – | – | 2.81 ± 0.21 | 5.04 | 10.2 | – | – | – | –
MKIKTILTPVTCALLISFSAHAANADNYKNVINRTGAPQYMKDYDYDDHQRFNPFFDLGAWHGHLLPDGPNTMGGFPGVALLTEEYINFMASNFDRLTVWQDGKKVDFTLEAYSIPGALVQKLTAKDVQVEMTLRFATPRTSLLETKITSNKPLDLVWDGELLEKLEAKEGKPLSDKTIAGEYPDYQRKISATRDGLKVTFGKVRATWDLLTSGESEYQVHKSLPVQTEINGNRFTSKAHINGSTTLYTTYSHLLTAQEVSKEQMQIRDILARPAFYLTASQQRWEEYLKKGLTNPDATPEQTRVAVKAIETLNGNWRSPGGAVKFNTVTPSVTGRWFSGNQTWPWDTWKQAFAMAHFNPDIAKENIRAVFSWQIQPGDSVRPQDVGFVPDLIAWNLSPERGGDGGNWNERNTKPSLAAWSVMEVYNVTQDKTWVAEMYPKLVAYHDWWLRNRDHNGNGVPEYGATRDKAHNTESGEMLFTVKKGDKEETQSGLNNYARVVEKGQYDSLEIPAQVAASWESGRDDAAVFGFIDKEQLDKYVANGGKRSDWTVKFAENRSQDGTLLGYSLLQESVDQASYMYSDNHYLAEMATILGKPEEAKRYRQLAQQLADYINTCMFDPTTQFYYDVRIEDKPLANGCAGKPIVERGKGPEGWSPLFNGAATQANADAVVKVMLDPKEFNTFVPLGTAALTNPAFGADIYWRGRVWVDQFWFGLKGMERYGYRDDALKLADTFFRHAKGLTADGPIQENYNPLTGAQQGAPNFSWSAAHLYMLYNDFFRKQ | – | – | – | – | 6.15 | – | – | – | – | – | – | –
MKILIVEDDTLLLQGLILAAQTEGYACDSVTTARMAEQSLEAGHYSLVVLDLGLPDEDGLHFLARIRQKKYTLPVLILTARDTLTDKIAGLDVGADDYLVKPFALEELHARIRALLRRHNNQGESELIVGNLTLNMGRRQVWMGGEELILTPKEYALLSRLMLKAGSPVHREILYNDIYNWDNEPSTNTLEVHIHNLRDKVGKARIRTVRGFGYMLVANEEN | 6.35 ± 0.76 | 5.04 ± 0.91 | 4.7 ± 0.14 | 4.71 ± 0.34 | 3.93 ± 0.24 | – | 5.33 ± 0.18 | 9.36 ± 0.56 | 5.55 ± 1.2 | 7.56 ± 0.27 | 4.89 ± 0.26 | 9.22 ± 0.027
MKILRWLFALVMLIATTEAMAAGHSVDVYYGYNGDSRNIATFNLKIMMPSAVYVGEYKSSQWLMTGEILQNVSWSGPPPAPSVKLIGYHQNINKASCPGLPSGWNCGYYTFEVIVSAEIESYFSCPWLVIMNDSEASPGGVTYQGPDSHDTICPSVSVQPYDVSWNENYVSKSKLLTLQSTGGVVEKTLSTYLMKDGKLCDSTQMNETGGYCRWVAQMITFTASGCDKAEVSVTPNRHPITDKQLHDMVVRVDTSSMQPIDSTCRFQYILNEL | 4.06 ± 0.19 | 4.43 | – | 4.34 | 5.02 ± 1.1 | 3.03 ± 0.58 | – | 6.01 | 4.81 | > 16 | 4.43 | 8.64 ± 0.17

From the supplement of paper PMC11246515
